Test results reported in patent US20060172357A1, “Detecting human antibodies in non-human serum” (Genentech, priority 2004, published 2006).
Values belong to the substance of their own block, whether it stands above or below them.

How the values were obtained:
[1] = molecular target: full-length CD20 molecule (human) (UniProt P11836); assay: ELISA, full-length CD20 coated at 5 µg/mL in PBS, detection sheep anti-hu IgG HRP (monkey adsorbed)
[2] = molecular target: full-length CD20 molecule (human) (UniProt P11836); assay: ELISA, full-length CD20 coated at 1 µg/mL in PBS, detection goat anti-hu F(ab')2 HRP
[3] = molecular target: full-length CD20 molecule (human) (UniProt P11836); assay: ELISA, full-length CD20 coated at 1 µg/mL in PBS, detection sheep anti-hu IgG HRP (monkey adsorbed)
[4] = molecular target: full-length CD20 molecule (human) (UniProt P11836); assay: ELISA, full-length CD20 coated at 5 µg/mL in PBS, detection goat anti-hu F(ab')2 HRP
[5] = molecular target: T1, biotinylated CD20 35-mer (streptavidin plate ELISA; mono- or bis-biotin form not stated); assay: ELISA, streptavidin plate with CD20 35-mer at 20 µg/ml, 2 wash cycles between steps, goat anti-human IgG (H+L) HRP detection
T1 sequence (peptide, biotinylated (mono or bis not stated); C-terminal amide; disulfide-cyclized): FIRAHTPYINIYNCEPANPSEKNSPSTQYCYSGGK

[6] = molecular target: T2, disulfide-cyclized mono-biotin CD20 35-mer; assay: SPR Biacore 3000, method 1: Mono-CD20-35mer on streptavidin chip at 95 RU, 2H7-IgG injected, 1:1 model, apparent KD
T2 sequence (peptide, N-terminal biotin; C-terminal amide; disulfide-cyclized): T1 sequence (peptide, biotinylated (mono or bis not stated); C-terminal amide; disulfide-cyclized)

[7] = molecular target: T1, biotinylated CD20 35-mer (streptavidin plate ELISA; mono- or bis-biotin form not stated); assay: ELISA, streptavidin plate with CD20 35-mer at 10 µg/ml, 2 wash cycles between steps, goat anti-human IgG (H+L) HRP detection
[8] = molecular target: Bis-biotin disulfide-cyclized CD20 35-mer; assay: SPR Biacore 3000, method 2: Bis-CD20-35mer on streptavidin chip at 685 RU, 2H7-IgG injected, bivalent analyte model, apparent KD
[9] = molecular target: T1, biotinylated CD20 35-mer (streptavidin plate ELISA; mono- or bis-biotin form not stated); assay: ELISA, streptavidin plate with CD20 35-mer at 2 µg/ml, 1 wash cycle between steps, goat anti-human IgG (H+L) HRP detection
[10] = molecular target: T1, biotinylated CD20 35-mer (streptavidin plate ELISA; mono- or bis-biotin form not stated); assay: ELISA, streptavidin plate with CD20 35-mer at 10 µg/ml, 3 wash cycles between steps, goat anti-human IgG (H+L) HRP detection
[11] = molecular target: T1, biotinylated CD20 35-mer (streptavidin plate ELISA; mono- or bis-biotin form not stated); assay: ELISA, streptavidin plate with CD20 35-mer at 20 µg/ml, 1 wash cycle between steps, goat anti-human IgG (H+L) HRP detection
[12] = molecular target: disulfide-cyclized Bis-biotin CD20 51-mer; assay: SPR Biacore 3000, method 2: Bis-CD20-51mer on streptavidin chip at 1037 RU, 2H7-IgG injected, bivalent analyte model, apparent KD
[13] = molecular target: T1, biotinylated CD20 35-mer (streptavidin plate ELISA; mono- or bis-biotin form not stated); assay: ELISA, streptavidin plate with CD20 35-mer at 10 µg/ml, 1 wash cycle between steps, goat anti-human IgG (H+L) HRP detection
[14] = molecular target: rhuMAb2H7; assay: direct sandwich ELISA, sheep anti-human IgG capture, goat anti-human IgG (H+L) HRP detection diluted in Buffer D - BGG (D1)
[15] = molecular target: rhuMAb2H7; assay: direct sandwich ELISA, sheep anti-human IgG capture, goat anti-human IgG (H+L) HRP detection diluted in Buffer A + 0.25% CHAPS (A4)
[16] = molecular target: rhuMAb2H7; assay: bridging ELISA, sheep anti-human IgG capture and detection; D1 + 0.2% rabbit IgG in blocking, sample and detection buffers
[17] = molecular target: rhuMAb2H7; assay: direct sandwich ELISA, sheep anti-human IgG capture, goat anti-human IgG (H+L) HRP detection diluted in Buffer A
[18] = molecular target: rhuMAb2H7; assay: bridging ELISA, sheep anti-human IgG capture and detection; blocking D, sample diluent D, detection diluent D
[19] = molecular target: rhuMAb2H7; assay: bridging ELISA, sheep anti-human IgG capture and detection; D1 + 0.2% donkey IgG in blocking, sample and detection buffers
[20] = molecular target: rhuMAb2H7; assay: bridging ELISA, sheep anti-human IgG capture and detection; blocking D1 + 0.2% fish gelatin, other diluents not given
[21] = molecular target: rhuMAb2H7; assay: direct sandwich ELISA, sheep anti-human IgG capture, goat anti-human IgG HRP detection, buffer C (with BGG) in all steps, n = 8
[22] = molecular target: rhuMAb2H7; assay: direct sandwich ELISA, sheep anti-human IgG capture, goat anti-human IgG (H+L) HRP detection diluted in Buffer A + 5 mM EDTA (A3)
[23] = molecular target: rhuMAb2H7; assay: direct sandwich ELISA, sheep anti-human IgG capture, goat anti-human IgG (H+L) HRP detection diluted in Buffer A + 0.2% BGG (A2)
[24] = molecular target: rhuMAb2H7; assay: direct sandwich ELISA, sheep anti-human IgG capture, goat anti-human IgG (H+L) HRP detection diluted in Buffer D
[25] = molecular target: rhuMAb2H7; assay: direct sandwich ELISA, sheep anti-human IgG capture, goat anti-human IgG HRP detection, buffer B in all steps, n = 8
[26] = molecular target: rhuMAb2H7; assay: bridging ELISA, sheep anti-human IgG capture and detection; D1 + 0.2% mouse IgG in blocking, sample and detection buffers
[27] = molecular target: rhuMAb2H7; assay: direct sandwich ELISA, sheep anti-human IgG capture, goat anti-human IgG HRP detection, buffer D (with BGG) in all steps, n = 8
[28] = molecular target: rhuMAb2H7; assay: direct sandwich ELISA, sheep anti-human IgG capture, goat anti-human IgG HRP detection, buffer A in all steps, n = 8
[29] = molecular target: rhuMAb2H7; assay: bridging ELISA, sheep anti-human IgG capture and detection; blocking D, sample diluent D1, detection diluent D1
[30] = molecular target: rhuMAb2H7; assay: direct sandwich ELISA, sheep anti-human IgG capture, goat anti-human IgG HRP detection, buffer E (HEPES) in all steps, n = 8
[31] = molecular target: rhuMAb2H7; assay: direct sandwich ELISA, sheep anti-human IgG capture, goat anti-human IgG (H+L) HRP detection diluted in Buffer A + 0.35 M NaCl (A1)
[32] = molecular target: rhuMAb2H7; assay: bridging ELISA, sheep anti-human IgG capture and detection; blocking D, sample diluent D, detection diluent A

Chain of full-length CD20 molecule (human) (P11836 whole entry): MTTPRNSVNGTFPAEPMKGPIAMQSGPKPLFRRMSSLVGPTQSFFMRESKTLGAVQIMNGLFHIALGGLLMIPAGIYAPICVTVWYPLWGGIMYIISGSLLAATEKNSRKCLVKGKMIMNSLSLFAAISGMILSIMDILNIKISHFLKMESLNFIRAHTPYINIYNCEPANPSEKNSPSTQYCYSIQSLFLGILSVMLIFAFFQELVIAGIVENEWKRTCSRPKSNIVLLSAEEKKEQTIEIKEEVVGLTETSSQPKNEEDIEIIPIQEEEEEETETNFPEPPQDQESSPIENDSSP
Chain of rhuMAb2H7 (antibody) (VH): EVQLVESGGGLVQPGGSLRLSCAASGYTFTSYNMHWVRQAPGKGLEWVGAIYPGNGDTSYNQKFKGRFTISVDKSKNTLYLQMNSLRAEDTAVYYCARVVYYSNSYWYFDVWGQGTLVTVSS
Chain of rhuMAb2H7 (antibody) (VL): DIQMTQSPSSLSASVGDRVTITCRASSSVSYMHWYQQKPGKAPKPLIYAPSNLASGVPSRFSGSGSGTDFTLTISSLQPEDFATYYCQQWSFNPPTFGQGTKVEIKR
Chain of disulfide-cyclized Bis-biotin CD20 51-mer (peptide, as listed by the source): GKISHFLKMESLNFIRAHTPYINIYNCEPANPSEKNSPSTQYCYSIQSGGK

signal of 247 ng/ml of Rituxan (O.D.450 nm) [1]: 0.023 O.D.
signal of 247 ng/ml of Rituxan (O.D.450 nm) [2]: 0.065 O.D.
signal of 247 ng/ml of Rituxan (O.D.450 nm) [3]: 0.012 O.D.
signal of 247 ng/ml of Rituxan (O.D.450 nm) [4]: 0.166 O.D.
Substance: Rituxan (antibody)

O.D. (450-650 nm) for 160 µg/ml of rhuMAb2H7 [5]: 0.01 O.D.
Kd [6]: 41700 nM
O.D. (450-650 nm) for 160 µg/ml of rhuMAb2H7 [7]: 0.009 O.D.
Kd [8]: 500 nM
O.D. (450-650 nm) for 160 µg/ml of rhuMAb2H7 [9]: 0.063 O.D.
O.D. (450-650 nm) for 160 µg/ml of rhuMAb2H7 [10]: 0.009 O.D.
O.D. (450-650 nm) for 160 µg/ml of rhuMAb2H7 [11]: 0.055 O.D.
Kd [12]: 110 nM
O.D. (450-650 nm) for 160 µg/ml of rhuMAb2H7 [13]: 0.063 O.D.
Substance: rhuMAb2H7 (antibody)

240 ng/ml 2H7 (O.D. 450-650 nm) [14]: 1.65 O.D.
240 ng/ml 2H7 (O.D. 450-650 nm) [15]: 2.15 O.D.
Signal of 2H7 at 240 ng/ml [16]: 0.06 O.D.
240 ng/ml 2H7 (O.D. 450-650 nm) [17]: 2.23 O.D.
Signal of 2H7 at 240 ng/ml [18]: 1.15 O.D.
Signal of 2H7 at 240 ng/ml [19]: 0.38 O.D.
Signal of 2H7 at 240 ng/ml [20]: 0.34 O.D.
Signal, O.D. 450-650 nm at 240 ng/ml rhuMAb2H7 [21]: 1.88 O.D.
240 ng/ml 2H7 (O.D. 450-650 nm) [22]: 2.13 O.D.
240 ng/ml 2H7 (O.D. 450-650 nm) [23]: 2.28 O.D.
240 ng/ml 2H7 (O.D. 450-650 nm) [24]: 0.962 O.D.
Signal, O.D. 450-650 nm at 240 ng/ml rhuMAb2H7 [25]: 1.91 O.D.
Signal of 2H7 at 240 ng/ml [26]: 0.09 O.D.
Signal, O.D. 450-650 nm at 240 ng/ml rhuMAb2H7 [27]: 1.72 O.D.
Signal, O.D. 450-650 nm at 240 ng/ml rhuMAb2H7 [28]: 2.04 O.D.
Signal of 2H7 at 240 ng/ml [29]: 1.04 O.D.
Signal, O.D. 450-650 nm at 240 ng/ml rhuMAb2H7 [30]: 2.1 O.D.
240 ng/ml 2H7 (O.D. 450-650 nm) [31]: 2 O.D.
Signal of 256 ng/ml of 2H7 [32]: 1.6 O.D.
Substance: sheep anti-human IgG heavy (H) and light (L) chain, cynomolgus monkey serum adsorbed (Cat #CUS1684, The Binding Site) (antibody)
